Assay results as given in patent US20190194324A1 (Johns Hopkins, published 2019).
Blank lines part the entries; values can stand above or below the binder they belong to.

How the values were obtained:
[1] = target: T1, α-syn-biotin PFF (biotin-labelled α-synuclein pre-formed fibrils) (mouse, UniProt O55042 1-140); test: alkaline phosphatase binding assay on cultured cortical neurons, WT minus LAG3-/-
[2] = target: T1, α-syn-biotin PFF (biotin-labelled …); test: cell surface binding assay on cells overexpressing the deletion mutant
[3] = target: T2, Human α-syn PFF (human, UniProt P37840 1-140); test: expression cloning screen of 352 transmembrane proteins in SH-SY5Y cells
[4] = target: T2, Human α-syn PFF; test: expression cloning screen in SH-SY5Y cells, streptavidin-AP staining
[5] = target: α-syn-biotin PFF (biotin-labelled α-synuclein pre-formed fibrils) (mouse, UniProt O55042 1-140); test: cell surface binding on LAG3-overexpressing SH-SY5Y cells, Scatchard analysis; 0% or 0.1% Triton X-100 (the legend marks both values only 'TX-100')

- Kd [1]: 103 nM
B1: mouse LAG3 (receptor)
chain: GPGKELPVVWAQEGAPVHLPCSLKSPNLDPNFLRRGGVIWQHQPDSGQPTPIPALDLHQGMPSPRQPAPGRYTVLSVAPGGLRSGRQPLHPHVQLEERGLQRGDFSLWLRPALRTDAGEYHATVRLPNRALSCSLRLRVGQASMIASPSGVLKLSDWVLLNCSFSRPDRPVSVHWFQGQNRVPVYNSPRHFLAETFLLLPQVSPLDSGTWGCVLTYRDGFNVSITYNLKVLGLEPVAPLTVYAAEGSRVELPCHLPPGVGTPSLLIAKWTPPGGGPELPVAGKSGNFTLHLEAVGLAQAGTYTCSIHLQGQQLNATVTLAVITVTPKSFGLPGSRGKLLCEVTPASGKERFVWRPLNNLSRSCPGPVLEIQEARLLAERWQCQLYEGQRLLGATVYAAESSSGAHSARRISGDLKGGHLVLVLILGALSLFLLVAGAFGFHWWRKQLLLRRFSALEHGIQPFPAQRKIEELERELETEMGQEPEPEPEPQLEPEPRQL
notes: whole, on cells; In the in vivo co-IP the protein came from brain stem lysates of mice; also called LAG3 full-length (FL); neuronal LAG3

- binding result [2]: no binding
B2: mouse LAG3 deletion mutant ΔD1 (receptor)
chain: IASPSGVLKLSDWVLLNCSFSRPDRPVSVHWFQGQNRVPVYNSPRHFLAETFLLLPQVSPLDSGTWGCVLTYRDGFNVSITYNLKVLGLEPVAPLTVYAAEGSRVELPCHLPPGVGTPSLLIAKWTPPGGGPELPVAGKSGNFTLHLEAVGLAQAGTYTCSIHLQGQQLNATVTLAVITVTPKSFGLPGSRGKLLCEVTPASGKERFVWRPLNNLSRSCPGPVLEIQEARLLAERWQCQLYEGQRLLGATVYAAESSSGAHSARRISGDLKGGHLVLVLILGALSLFLLVAGAFGFHWWRKQLLLRRFSALEHGIQPFPAQRKIEELERELETEMGQEPEPEPEPQLEPEPRQL
notes: whole, on cells; Expressed in HEK293FT cells; also called D1 domain deletion mutant

The next lines start with the binder.

B3: APLP1 (NM_005166) expressed in SH-SY5Y cells (Origene GFC-transfection array clone) (receptor)
chain: SLAGGSPGAAEAPGSAQVAGLCGRLTLHRDLRTGRWEPDPQRSRRCLRDPQRVLEYCRQMYPELQIARVEQATQAIPMERWCGGSRSGSCAHPHHQVVPFRCLPGEFVSEALLVPEGCRFLHQERMDQCESSTRRHQEAQEACSSQGLILHGSGMLLPCGSDRFRGVEYVCCPPPGTPDPSGTAVGDPSTRSWPPGSRVEGAEDEEEEESFPQPVDDYFVEPPQAEEEEETVPPPSSHTLAVVGKVTPTPRPTDGVDIYFGMPGEISEHEGFLRAKMDLEERRMRQINEVMREWAMADNQSKNLPKADRQALNEHFQSILQTLEEQVSGERQRLVETHATRVIALINDQRRAALEGFLAALQADPPQAERVLLALRRYLRAEQKEQRHTLRHYQHVAAVDPEKAQQMRFQVHTHLQVIEERVNQSLGLLDQNPHLAQELRPQIQELLHSEHLGPSELEAPAPGGSSEDKGGLQPPDSKDDTPMTLPKGSTEQDAASPEKEKMNPLEQYERKVNASVPRGFPFHSSEIQRDELAPAGTGVSREAVSGLLIMGAGGGSLIVLSMLLLRRKKPYGAISHGVVEVDPMLTLEEQQLRELQRHGYENPTYRFLEERP
notes: whole, on cells; also called amyloid beta (A4) precursor-like protein 1
- binding result [3]: binds

B4: LAG3 (NM_002286) expressed in SH-SY5Y cells (Origene GFC-transfection array clone) (receptor)
chain: LQPGAEVPVVWAQEGAPAQLPCSPTIPLQDLSLLRRAGVTWQHQPDSGPPAAAPGHPLAPGPHPAAPSSWGPRPRRYTVLSVGPGGLRSGRLPLQPRVQLDERGRQRGDFSLWLRPARRADAGEYRAAVHLRDRALSCRLRLRLGQASMTASPPGSLRASDWVILNCSFSRPDRPASVHWFRNRGQGRVPVRESPHHHLAESFLFLPQVSPMDSGPWGCILTYRDGFNVSIMYNLTVLGLEPPTPLTVYAGAGSRVGLPCRLPAGVGTRSFLTAKWTPPGGGPDLLVTGDNGDFTLRLEDVSQAQAGTYTCHIHLQEQQLNATVTLAIITVTPKSFGSPGSLGKLLCEVTPVSGQERFVWSSLDTPSQRSFSGPWLEAQEAQLLSQPWQCQLYQGERLLGAAVYFTELSSPGAQRSGRAPGALPAGHLLLFLILGVLSLLLLVTGAFGFHLWRRQWRPRRFSALEQGIHPPQAQSKIEELEQEPEPEPEPEPEPEPEPEPEQL
notes: The clone of the screen is named by NM_002286
- binding result [4]: binds

B5: LAG3 overexpressed in transfected cells (SH-SY5Y; HEK293FT) (receptor)
chain: LQPGAEVPVVWAQEGAPAQLPCSPTIPLQDLSLLRRAGVTWQHQPDSGPPAAAPGHPLAPGPHPAAPSSWGPRPRRYTVLSVGPGGLRSGRLPLQPRVQLDERGRQRGDFSLWLRPARRADAGEYRAAVHLRDRALSCRLRLRLGQASMTASPPGSLRASDWVILNCSFSRPDRPASVHWFRNRGQGRVPVRESPHHHLAESFLFLPQVSPMDSGPWGCILTYRDGFNVSIMYNLTVLGLEPPTPLTVYAGAGSRVGLPCRLPAGVGTRSFLTAKWTPPGGGPDLLVTGDNGDFTLRLEDVSQAQAGTYTCHIHLQEQQLNATVTLAIITVTPKSFGSPGSLGKLLCEVTPVSGQERFVWSSLDTPSQRSFSGPWLEAQEAQLLSQPWQCQLYQGERLLGAAVYFTELSSPGAQRSGRAPGALPAGHLLLFLILGVLSLLLLVTGAFGFHLWRRQWRPRRFSALEQGIHPPQAQSKIEELEQEPEPEPEPEPEPEPEPEPEQL
- Kd [5]: 71 nM
